Data reported in paper PMC3868960.

Target: tumor necrosis factor-related apoptosis-inducing ligand (TRAIL) (human) (UniProt P50591)
Test: non-reducing SDS-PAGE

“tumor necrosis factor-related apoptosis-inducing ligand (TRAIL) (from UniProt P50591 1-281)” gave a percent dimer of 27.2%, a percent monomer of 70.1% and a percent trimer of 2.62%.
